# B1: sActRIIB: extracellular domain of human activin type-2B receptor fused to IgG2 Fc; full length SEQ ID NO: 21 (Table 9) (protein, listed as Homo sapiens)
# chain: ETRWCIYYNANWELERTNQSGLERCEGEQDKRLHCYASWRNSSGTIELVKKGCWLDDFNCYDRQECVATEENPQVYFCCCEGNFCNERFTHLPEAGGPEVTYEPPPTAPTGGGGSVECPPCPAPPVAGPSVFLFPPKPKDTLMISRTPEVTCVVVDVSHEDPEVQFNWYVDGVEVHNAKTKPREEQFNSTFRVVSVLTVVHQDWLNGKEYKCKVSNKGLPAPIEKTISKTKGQPREPQVYTLPPSREEMTKNQVSLTCLVKGFYPSDIAVEWESNGQPENNYKTTPPMLDSDGSFFLYSKLTVDKSRWQQGNVFSCSVMHEALHNHYTQKSLSLSPGK
# Key:
# [1] = system: G361 human melanoma xenografts; experiment: G361 melanoma xenograft growth in nude mice; assay type: in vivo; details: sActRIIB 20 mg/kg SC 1x/week from day 14
# Protocol: G361 and 5637 xenografts. 5×10^6 G361 melanoma cells and 5637 bladder carcinoma cells, respectively, were inoculated SC into individual athymic nu/nu mice (Harlan Inc). Treatment was initiated 4 days after 5637 implantation and 14 days after G361 implantation, when the tumor volumes reached 130 mm^3−150 mm^3. 5637-implanted mice received PBS or activin-A antibody (10 mg/kg, SC, 2×/week). G361-implanted mice received PBS or sActRIIB (20 mg/kg, SC, 1×/week).
# For all xenograft experiments, the tumor sizes were measured longitudinally by using an electronic caliper. Immediately prior to the 1st dose, the tumor-bearing mice were randomized to ensure even distribution in tumor sizes across different groups. Tumor volumes (mm^3) were calculated as tumor length (mm)×tumor width (mm)×tumor height (mm). Tumor weights were determined by necropsy.
# [2] = system: TOV-21G xenografts; experiment: TOV-21G xenograft, sActRIIB and 5-FU chemotherapy combination; assay type: in vivo, human; details: nude mice; sActRIIB 10 mg/kg SC 1x/week, 5-FU 50 mg/kg IP 3 cycles, alone or together
# Protocol: TOV-21G xenograft. 5×10^6 TOV-21G ovarian cancer cells were implanted subcutaneously into individual female athymic nu/nu mice (Harlan). Treatment was initiated at day 12 after tumor implantation, when the average tumor volume reached approximately 150 mm^3. The mice received PBS, sActRIIB (30 mg/kg, SC, 1×/week) or activin-A antibody (30 mg/kg, SC, 2×/week). In a separate chemotherapy combination experiment, the mice were treated with PBS, sActRIIB (10 mg/kg, SC, 1×/week), 5-FU (50 mg/kg, IP, 3 cycles, 4 daily injections per cycle) or sActRIIB and 5-FU combination at the same doses above. For all xenograft experiments, the tumor sizes were measured longitudinally by using an electronic caliper. Immediately prior to the 1st dose, the tumor-bearing mice were randomized to ensure even distribution in tumor sizes across different groups. Tumor volumes (mm^3) were calculated as tumor length (mm)×tumor width (mm)×tumor height (mm). Tumor weights were determined by necropsy.
# [3] = system: caspase-3; experiment: Active caspase-3 immunostaining of inh-KO tumor sections; assay type: in vivo, mouse; details: ovarian and testicular tissue sections, regions of residual tumor cells
# Protocol: Zinc-formalin fixed paraffin tumor tissue sections of 4 μm in thickness were prepared. The sections were subjected to antigen retrieval by microwave 3 min in Unmask solution (Vector H-3300) followed by incubation in 10 μg/ml Proteinase-K for 20 min and in 1% H2O2 in dH2O for 10 min at room temperature. The sections were further incubated in 0.1% Tween-20 in PBS for 3 min to permeabilize the cell membrane and in goat serum for 30 min to block non-specific binding. The sections were then incubated at room temperature with specific primary antibody for 3 hours followed by incubation in biotinylated or fluorescently labeled secondary antibody. Substrate developed in Vector SG kit (SK-4700) or DAB and nuclear-counterstained in Vector Fast Red (H-3403) or in hematoxylin. The immunostained tissue sections were analyzed and photographed using a Nikon Eclipse 90i microscope equipped with DS-Ril camera. The primary antibodies used and their dilutions are as follows: VEGF (BD Pharmingen 550549) 1:20 or VEGF (Abcam ab46154) 1:100, active caspase-3 (Abcam ab32042) 1:50, Ang-1 (Abcam ab8451) 1:500, osteopontin (Abcam ab8448) 1:200, CD-31 (Abcam ab56299) 1:100, E-cadherin (Abcam ab76319) 1:80. For immunofluorescence staining, FITC-conjugated secondary antibody (Invitrogen) was added at 1:50 dilution in PBS and incubated for 30 min. Cell nuclei were counterstained with Vectashield PE (Vector).
# [4] = system: TOV-21G, BAEC, MRC-5, CCD-Lu, U937 and THP-1 cultures; experiment: Real-time RT-PCR of VEGF, Ang-1 and βA in cell cultures treated with recombinant activin-A; assay type: cell-based; details: sActRIIB added with recombinant activin-A
# Description: ID NO: 291), [NT] ID NO: 292), and TaqMan probe [NT] ID NO: 293).
# [5] = system: ovarian and testicular tumors; experiment: Light microscopy (H & E) of inh-KO ovaries and testes; assay type: in vivo, mouse
# Description: Testes and ovaries from inh-KO mice were fixed with Zinc-formalin. Tissue sections were subjected to H & E staining and then examined with a Nikon Eclipse 90i microscope.
# [6] = system: TOV-21G ovarian xenograft tumors; experiment: sActRIIB and doxorubicin in TOV-21G tumor-bearing nude mice: tumor size and weight; assay type: in vivo, human; details: sActRIIB 10 mg/kg SC 1x/week, DOX 2 mg/kg IP 1x/week; 4-week study
# Protocol: The objective of the present study was to examine the effect of pharmacological administration of sActRIIB, doxorubicin (dox), and sActRIIB plus doxorubicin, respectively, on body weight, tumor growth and muscle mass in nude mice implanted with TOV-21G ovarian xenograft tumors. Eight-week-old female Athymic nude mice were SC injected with 0.2 mL of 5×10^6 TOV-21G cells into the left site of the lower flank of the mice. After 10 days of tumor implantation, the mice were divided into 4 groups by body weight and tumor size and then treated with vehicle, sActRIIB, doxorubicin or the combination of sActRIIB and doxorubicin. In addition, a group of non-tumor bearing mice was used as normal control and received PBS.
# Mice were weighed weekly. Body weight data were recorded longitudinally. Tumor size was measured longitudinally by using an electronic caliper. The following formula was used to calculate actual tumor volume (Tomayko M and Reynolds C, 1989): (Volume of a rectangular solid tumor: Tumor volume (mm^3)=length (mm)×width (mm)×height (mm) of tumor). At the end of the study, mice in all groups were subjected to terminal necropsy and lean carcass weight (excluding skin, adipose tissue, internal organs, and head) was determined by using standard anatomical dissection procedures. […] All results were expressed as the mean±SEM (standard error of the mean). […]
# [7] = system: Smad2 signaling; experiment: Western blot of phospho-Smad2 in inh-KO tumors; assay type: in vivo, mouse; details: inh-KO mice, increase vs WT controls
# Protocol: Protein extracts were prepared from cell cultures or tissues in T-PER tissue protein extraction reagent (Pierce) containing a mixture of protease inhibitors (Roche). A pool of 50 μg total protein for each group containing equal amounts of protein extract isolated from individual animals was separated by NuPAGE 4-12% Bis-Tris gel (Invitrogen) and transferred to PVDF. The membranes were probed with primary antibodies against total Smad2, p-Smad2 or E-cadherin (1:1000; Cell Signaling), endoglin, osteopontin (1:500; R & D Systems), IGFBP-1, IGFBP-2 (1:500; Abcam) followed by HRP-conjugated secondary antibody (1:2000; Cell Signaling). The membranes were stripped and re-probed with antibody against α-tubulin (1:1000; Cell Signaling).
molecule,measurement,setting,value
B1,growth rate and size of G361 xenografts,[1],significantly decreased the growth rates and sizes
same,rate of tumor growth,[2],decreased the rate of tumor growth significantly
same,active caspase-3 immunostaining,[3],strong immunostaining of active caspase-3
same,induction of VEGF and Ang-1 mRNA by recombinant activin-A,[4],prevented this induction of VEGF and Ang-1
same,induction of βA expression by recombinant activin-A,[4],blocked completely
same,ovarian morphology by light microscopy,[5]; female inh-KO mice,"the ovaries were normal in size and contained many recognizable follicles, minimal tumor cell invasion and few hemorrhagic lesions"
same,testicular morphology by light microscopy,[5]; male inh-KO mice,"the testes were normal in size and filled with seminiferous tubules, although the number of spermatogonia was less than normal and a few small areas still contained tumor cells"
same,tumor size and tumor weight vs vehicle-treated TOV-21G group,[6],capable of inhibiting TOV-21G tumor growth
same,phospho-Smad2 in the tumor tissues,[7],eliminated this increase in phospho-Smad2

# Source: patent US12383572B2, “Administration of an anti-activin-a compound to a subject” (AMGEN INC., priority 2013, dated 2025)
